Experimental data reported in patent US20040047873A1 (published 2004).

T1: CD40 on murine splenic B cells (mouse, UniProt P27512 20-289)
T1 sequence (looked up): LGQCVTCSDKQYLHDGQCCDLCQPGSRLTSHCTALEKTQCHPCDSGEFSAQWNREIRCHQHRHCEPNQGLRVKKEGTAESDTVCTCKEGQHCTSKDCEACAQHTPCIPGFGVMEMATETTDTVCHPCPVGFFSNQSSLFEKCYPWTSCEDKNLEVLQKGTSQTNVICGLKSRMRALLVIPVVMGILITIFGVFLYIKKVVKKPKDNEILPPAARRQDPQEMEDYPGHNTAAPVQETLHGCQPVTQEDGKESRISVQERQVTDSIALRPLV

B1: soluble trimeric CD154 (tCD154) (ligand, human;mouse, UniProt P35247 223-257, looked up)
chain: DVASLRQQVEALQGQVQHLQAAFSQYKKVELFPNGLDKVEEEVNLHEDFVFIKKLKRCNKGEGSLSLLNCEEMRRQFEDLVKDITLNKEEKKENSFEMQRGDEDPQIAAHVVSEANSNAASVLQWAKKGYYTMKSNLVMLENGKQLTVKREGLYYVYTQVTFCSNREPSSQRPFIVGLWLKPSSGSERILLKAANTHSSSQLCEQQSVHLGGVFELQAGASVFVNVTEASQVIHRVGFSSFGLLKL
notes: range 223-257;range 50-260; Expressed in CHO-K1 with the rat CD4 leader (secretion signal, left out here); Non-covalent homotrimer, apparent mass ~100 kDa by size exclusion; also called trimeric form of CD154
B2: murine CD40-human Fc fusion protein (Fc fusion, mouse, UniProt P27512 20-193, looked up)
chain: LGQCVTCSDKQYLHDGQCCDLCQPGSRLTSHCTALEKTQCHPCDSGEFSAQWNREIRCHQHRHCEPNQGLRVKKEGTAESDTVCTCKEGQHCTSKDCEACAQHTPCIPGFGVMEMATETTDTVCHPCPVGFFSNQSSLFEKCYPWTSCEDKNLEVLQKGTSQTNVICGLKSRMR
notes: captured on immobilised anti-human Fc mAb in the BIAcore assay; also called CD40-Fc; not shown: human immunoglobulin Fc

Assays:
[1] = molecular target: T1, CD40 on murine splenic B cells; assay: cell-based or functional assay
[2] = molecular target: B2; assay: BIAcore; dissociation half-time from captured CD40-Fc
Method: (§1) The lower activity of tCD154 when compared with SP-D-CD154 could be the result of its relatively low affinity for CD40. To address this question the inventors analysed the affinity and kinetics of the interaction between tCD154 or SP-D-CD154 and CD40 using the BIAcore™ biosensor, which measures protein-protein interaction in real time. A murine anti-human Fc mAb was covalently coupled to the dextran matrix, and either tCD154 or SPD-CD154 was then injected over this mAb in order to determine the level of non-specific binding. Specific binding was determined by first injecting murine CD40-human Fc fusion protein which bound to the immobilised anti-human Fc mAb, and then injecting (31.3-250 nM) tCD154 or SPD-CD154 (FIG. 6). Co-injection of the anti-CD154 mAb MR1 and tCD154 or SP-D-CD154 completely abolished the binding of tCD154 or SP-D-CD154 to CD40 (data not shown). […] SP-D-CD154 can potentially bind to twelve CD40 molecules, compared to three molecules with tCD154 [9], implying that the extent of receptor oligomerisation may influence the signals generated by CD40. Within the X-shaped SP-D molecule, the adjacent arms are separated by a distance of either ˜20 nm or ˜90 nm (FIG. 1A). Thus if all four arms of SP-D-CD154 engage cell surface-expressed CD40, two clusters are likely to form each with six closely associated CD40 molecules.

[3] = molecular target: B2; assay: BIAcore; CD40-Fc captured on anti-human Fc mAb, SP-D-CD154 injected
[4] = molecular target: B2; assay: BIAcore; CD40-Fc captured on anti-human Fc mAb, SP-D-CD154 injected at 31.3-250 nM; apparent affinity
[5] = molecular target: B1; assay: BIAcore; CD40-Fc captured on anti-human Fc mAb, tCD154 injected
Method: as §1

[6] = molecular target: B1; assay: BIAcore; CD40-Fc captured on anti-human Fc mAb, tCD154 injected at 31.3-250 nM; apparent affinity
Method: as §1

| fold increase in the level of CD86 on B cells against untreated cells (5 nM, 24 h) [1] [fold] | fold increase in the level of ICAM-1 on B cells against untreated cells (5 nM, 24 h) [1] [fold] | in vitro B cell proliferation assay [1] [µg/mL] | mean forward scatter of B cells (size and activation status) [1] | proliferation of murine splenic B cells ([3H] thymidine incorporation) [1] [fold] | t1/2 [2] [h] | koff [3] [s⁻¹] | Kd [4] [nM] | koff [5] [s⁻¹] | Kd [6] [nM] | Molecule |
| --- | --- | --- | --- | --- | --- | --- | --- | --- | --- | --- |
| 3.6 | 3.8 | 2 | 409 | 8 | 1.38 | 0.00014 | 1.3 |  |  | SP-D-CD154 dodecameric fusion protein between lung surfactant protein-D and CD154 (from UniProt P35247 1-257; P27548 50-260) (ligand) |
| 1.4 | 2 |  |  |  | ~1.07 |  |  |  |  | B1 |
|  |  |  |  |  |  |  |  | 0.00018 | 2 | B2 |
